This test deals with T1, Recombinant mouse CMG helicase (CDC45‐MCM‐GINS) (mouse, UniProt Q9Z1X9 1-566; P97310 1-904; P25206 1-812; P49717 1-862; P49718 1-734; P97311 …).
T1 construct: CDC45, mouse; MCM2, mouse; MCM3, mouse; MCM4, mouse; MCM5, mouse; MCM6, mouse; MCM7, mouse; PSF1 (GINS subunit), mouse; fourth GINS subunit, mouse; PSF3 (GINS subunit), mouse; SLD5 (GINS subunit), mouse; The complex was captured on IgG Sepharose and released with TEV protease, so one subunit carried a cleavable tag; source: budding yeast strain YCE1259 co-expressing the 11 subunits, purified (IgG …)
Briefly: co-IP; purified recombinant mouse DONSON and CMG incubated in 25 mM Hepes‐KOH pH 7.6, 200 mM KOAc, 0.02% NP‐40, 10 mM MgOAc, 1 mM DTT, 0.1 mg/ml BSA for 30 min on ice; CMG isolated on magnetic beads coupled to MCM6 antibody, 1 h on ice; immunoblotting (Fig 1C). To be noted: both partners purified. A general note: In western blotting, separated proteins are transferred to a membrane and probed.

B1: Recombinant mouse DONSON (natural protein, UniProt Q9QXP4 1-560, looked up)
chain: MAVSVPGYSPSFKRPPETVRLRRKRSRDHGAAVPASLPEPAPRRAALAAGLPLRPFPTAGGRGGAAATIARRNPFARLDNRPRVSDEASEEPLRGPQGASGPLLDSNEENNLLWEDTSSHERTGTELSQSQRVSLSESDTWSSDGTELPVDWSIKTRLLFTSSQPFSWADHLKAQEEAQGLVQHCRATEVTLPQSIQDPKLSTALRCAFQQALVYWLHPAFSWLPLFPRIGADRKMAAKTSPWSADETLQHALMSDWSVSFTSLYNLLKTKLCPYFYVCSYQFTVLFRAAGLAGSSVITALISPTTRGLREAMRNEGIEFSLPLLEEIGHKKKVRDPSLESEEEQAVSDEDEEESFSWLEEIGVQDQIKKPDVISIKLRKEKHEVQMDHRPESVVLVKGLNTFKLLNFLINCKSLVATSGAQAGLPPTLLSPIAFRGASMQMLKARSSNVKTQALSGYRDKFSLDITGPVMPHALHSMSMLLRSSQRGSFSAGLYAHEPTAVFNVGLSLDKELDRKVAREDLANCGLHPKTLEQLSQRPVLGKSSLRSVEMSDYILSWRS
notes: DONSON, mouse; also called His‐SUMO‐DONSON (before cleavage); source: E. coli Rosetta (DE3) pLys, purified (Ni‐NTA, ULP1 cleavage, Superdex 200)
For B1, the binding result is on record as “binds”.

The values are drawn from PMC10626419, “DONSON is required for CMG helicase assembly in the mammalian cell cycle” (EMBO Reports, 2023).
